# Assay: Circular dichroism (CD) spectral analysis of peptide conformation, % helicity
# Format: physicochemical
# Experimental: According to this example, circular dichroism (CD) experiments were performed to determine the conformation changes of VIP in phospholipid micelles, pH and temperature changes, and in aqueous solutions. CD spectra were recorded on a JASCO J-700 spectropolarimeter using a fused quartz cell of 1 cm pathlength. Spectra in 0.15 N saline (pH 6.8) and 5 mM Hepes buffer (pH 7.4) were measured at a peptide concentration of 4 μM and at a lipid concentration of 1 mM. The effects of CaM, pH (6.8 or 7.4) and temperature (25° C. or 37° C.) on VIP conformation were also studied. The conformation of VIP fragments was likewise studied. All measurements were carried out at room temperature (˜25° C.) unless otherwise noted. A bandwidth of 1.0 nm and a step resolution of 0.5 nm were used to collect an average of 9 accumulations/sample at the […] (200-260 nm wavelength). The peptide spectra shown have the background buffer scans, and empty vesicle scans subtracted and were smoothed using the noise reduction function. The temperature during spectral analysis was maintained by using a circulating water bath attached to a jacket surrounding the fused quartz CD cell. The percent helical characterization of VIP was determined by a method of Haghjoo et al., Peptide Research 9 (6):327-331 (1996): % helicity=[−(θ208+4000)/29 000]*100 and are reported in table 1.
# According to the example, CD was used to determine the conformation of VIP in saline, Hepes buffer and phospholipid micelles at room temperature and at 37° C. The CD spectra analysis was performed after 13 μg of human VIP incubated with 1 ml PEG-DSPE (1 μmol) micelles for 30 min at room temperature as determined by preliminary studies. A bandwidth of 1.0 nm and a step resolution of 0.5 nm were used to collect an average of 9 accumulations/sample at near UV range (200-260 nm). The temperature was maintained during spectral analysis by a circulating water bath attached to a jacket surrounding the fused quartz CD cell. The evaluation of VIP molecule conformation in SSM by using circular dichroism was successful because the distortion caused by spherical particles was eliminate due to the small size and univesicular structure of the SSM. […] The phospholipid micelles were ideal in our study of VIP conformation since it provided a hydrophobic core similar to the phospholipid bilayer of the SSL. Moreover, both the negative charge, and the hydrophilic layer provided by the PEG mimic the conditions of our SSL and make it possible to infer the VIP conformational results.
# According to this example, the method of example 4 was repeated to determine the conformation of VIP in saline and phospholipid micelles plus calmodulin (CaM). CD spectra measurements were performed after 13 μg/ml of VIP was incubated with 1.0 μmol/ml of phospholipid micelles for 30 min followed by 10^−10 M CaM incubated with VIP in phospholipid micelles for 2 h at 4° C. (conjugation paper). A bandwidth of 1.0 nm and a step resolution of 0.5 nm were used to collect the average of 9 accumulations/sample at near UV range (200-260 nm).
# According to this example the method of example 4 was repeated to determine the conformation of VIP fragments in saline and phospholipid micelles. CD spectra measurements were performed after incubation of VIP fragments with phospholipid micelles, at a molar concentration equivalent to VIP (i.e. 9 μg/ml for VIP10-28 fragment and 6 μg/ml for VIP1-12 fragment), for 30 min. A bandwidth of 1.0 nm and a step resolution of 0.5 nm were used to collect the average of 9 accumulations/sample at near UV range (200-260 nm). Specifically, CD spectra of human VIP fragment (1-12) and (10-28) in the presence of phospholipid micelles are shown in FIG. 5. […] These effects correlate well with the % helicity of VIP fragments determined in saline and in the presence of phospholipids (Table 1). […]
substance,measurement,setting,value
vasoactive intestinal peptide [VIP],Conformation from CD spectrum in the presence of phospholipid micelles (SSM),"phospholipid micelles (SSM), room temperature",predominantly α-helix conformation
same,% Helicity (in the presence of) Phospholipids,37° C.,67%
same,% Helicity (in the presence of) Phospholipids,room temperature,27%
same,% Helicity (in the presence of) Saline,"saline, 37° C.",2%
same,% Helicity (in the presence of) Saline,"saline, room temperature",5%
same,Conformation from CD spectrum in saline,"saline, room temperature",primarily a random coil structure
